Like-named read-outs stand apart in the source and are kept apart here. Each block holds one molecule with its values, some of them ahead of it.
Assays:
[1] = biological target: Nicotiana benthamiana subtilisin-like serine protease SBT1, recombinant, C-terminal hexahistidine tag; test: enzyme inhibition (fluorogenic substrate); pH 5.5, 30°C
gp41 peptide […] = test: SPR, antibody captured on Protein A chip, peptide as analyte, 1:1 model
[2] = biological target: Nicotiana benthamiana subtilisin-like serine protease SBT2, recombinant, C-terminal hexahistidine tag; test: enzyme inhibition (fluorogenic substrate); pH 5.5, 30°C
[3] = biological target: T1, Nicotiana benthamiana subtilisin-like serine protease SBT1, recombinant, C-terminal hexahistidine tag; test: as above
T1 chain: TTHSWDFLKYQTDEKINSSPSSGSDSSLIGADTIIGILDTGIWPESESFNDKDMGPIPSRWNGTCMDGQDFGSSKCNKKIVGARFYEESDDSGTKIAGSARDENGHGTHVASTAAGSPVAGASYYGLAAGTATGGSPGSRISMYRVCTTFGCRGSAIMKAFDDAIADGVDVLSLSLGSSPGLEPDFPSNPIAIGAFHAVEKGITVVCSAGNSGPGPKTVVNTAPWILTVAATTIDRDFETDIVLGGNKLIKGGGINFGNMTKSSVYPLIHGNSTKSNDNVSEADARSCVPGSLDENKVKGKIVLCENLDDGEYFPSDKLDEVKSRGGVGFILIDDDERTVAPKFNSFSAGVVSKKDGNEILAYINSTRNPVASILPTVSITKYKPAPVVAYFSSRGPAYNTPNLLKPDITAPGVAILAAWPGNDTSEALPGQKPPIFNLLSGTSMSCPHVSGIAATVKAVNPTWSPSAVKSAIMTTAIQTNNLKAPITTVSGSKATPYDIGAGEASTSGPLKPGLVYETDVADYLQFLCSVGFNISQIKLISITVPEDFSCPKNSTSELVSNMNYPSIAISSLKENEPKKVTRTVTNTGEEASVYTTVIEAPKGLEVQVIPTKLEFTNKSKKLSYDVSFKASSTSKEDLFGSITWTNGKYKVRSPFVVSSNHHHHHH

[4] = biological target: T2, Nicotiana benthamiana subtilisin-like serine protease SBT2, recombinant, C-terminal hexahistidine tag; test: as above
T2 chain: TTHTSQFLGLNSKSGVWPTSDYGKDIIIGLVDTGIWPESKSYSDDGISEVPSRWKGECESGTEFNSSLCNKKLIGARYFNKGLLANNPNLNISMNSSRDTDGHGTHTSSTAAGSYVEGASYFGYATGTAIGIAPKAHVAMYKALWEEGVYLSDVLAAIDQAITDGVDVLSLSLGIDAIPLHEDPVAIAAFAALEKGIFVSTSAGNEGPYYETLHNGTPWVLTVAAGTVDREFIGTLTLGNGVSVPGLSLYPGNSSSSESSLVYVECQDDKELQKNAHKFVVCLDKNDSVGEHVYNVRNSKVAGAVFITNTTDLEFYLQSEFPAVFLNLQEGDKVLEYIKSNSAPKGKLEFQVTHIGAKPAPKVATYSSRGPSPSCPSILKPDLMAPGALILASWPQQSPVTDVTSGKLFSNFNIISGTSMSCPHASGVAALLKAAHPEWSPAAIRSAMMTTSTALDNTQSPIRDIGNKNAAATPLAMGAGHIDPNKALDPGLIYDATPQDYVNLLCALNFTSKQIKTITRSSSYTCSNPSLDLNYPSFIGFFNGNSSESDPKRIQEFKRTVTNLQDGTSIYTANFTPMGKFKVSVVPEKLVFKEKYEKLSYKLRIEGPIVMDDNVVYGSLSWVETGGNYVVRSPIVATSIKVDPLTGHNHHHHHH

- Ki [1]: 51 nM
Molecule: S111g018590 (subtilisin propeptide-like inhibitor from S. lycopersicum)

Molecule: cleaved 2F5 (2F5 degradation product after digestion with apoplastic fluid proteases) (antibody)
- fold reduction of affinity against intact 2F5 (gp41 peptide […]): > 20 fold

- Ki [2]: 27 nM
Molecule: S106g065370 (subtilisin propeptide-like inhibitor from S. lycopersicum)

- Ki [3]: 81 nM
- Ki [4]: 45 nM
B1: Arabidopsis thaliana subtilisin propeptide-like inhibitor 2 (other)
chain: RTLGPAPDNQQMKCYLVNVDFALYHGDCKQYQQLLKKVVHGRSAKDALVYCYKEVMSGFAAKLTAAEAEKLKGEKGISAIDVDHIFSMDVEPHSHGKGY

— patent publication US20220228161A1 (published 2022)
